Experimental findings from patent US20190022211A1 (CELLTRION, published 2019) are described below.

Test [1] has as its target G protein of rabies virus Mongoose RSA , on virus (rabies virus). The test is described as follows: cell-based or functional assay.
Test [2] addresses G protein of rabies virus DR Brazil , on virus (rabies virus). The test is described as follows: cell-based or functional assay.

Where “and” joins values, the source holds several entries; their conditions need not be identical. Equal entries are not always repeated.

B1: antibody 1 (antibody, V domains shown)
VH: VQLLQESGPGLAKPSETLSLICTVSGGSISRRRDYWGWIRQPPGRGLEWIGSFFHRGSTYYNPSLESRVSISVDPSKNQFSLHLSSVTVADTAVYYCARHPSTPFAEYLLLPDAFDSWGQGTLVTVSS
VL: DIVMTQSPATLSVSPGERATLSCRASQSVRSSLAWYQQRPGQAPRLLISGASTRATDIPARLSGSGSGTEFTLTVSSLQSEDFAVYYCQQYSDWPLTFGGGTKVEIKR
For the molecule B1, in test [1], the “neutralizing activity (RFFIT)” value is 7.7 IU/mL and 7710 IU/mg; the “neutralizing activity (RFFIT), Titer” value came out at 270. For the same molecule, in test [2], the “neutralizing activity (RFFIT)” value was 2.2 IU/mL and 2240 IU/mg; the “neutralizing activity (RFFIT), Titer” value worked out at 56.

B2: antibody 2 (antibody, V domains shown)
VH: EVQLVESGAEVKKPGASVKVSCKASGYTFTSYDISWVRQAPGQGLEWMGWISTYKGNTNFAQKFQDRVTLTTDTSTTTAYMELRSLTSDDTAVYYCARAKSHPFYDFWSAYYVPGAFDIWGQGTVVTVSS
VL: not shown
With B2, in test [1], the “neutralizing activity (RFFIT)” value is 9.1 IU/mL and 9140 IU/mg; the “neutralizing activity (RFFIT), Titer” value was found to be 320. Further, in test [2], the “neutralizing activity (RFFIT)” value is 1.8 IU/mL and 1800 IU/mg; the “neutralizing activity (RFFIT), Titer” value was determined as 45.
